This is an account of results in patent US20060269549A1 (APPLIED MOLECULAR EVOLUTION, published 2006).

For experiment [1], the target named is T1, human TNF-α (human, UniProt P01375 77-233).
T1 construct: It was biotinylated in some screening assays; also called hTNF-α; hTNF
Description: ELISA, Fab dilution series on human TNF-α (Example 1; the filing does not say which of its two ELISA formats: hTNF-α-coated plate, or Fab captured on anti-human kappa with 5 nM biotinylated hTNF-α).

The target of experiment [2] is T1, human TNF-α. Kind of experiment: cell-based or functional assay.
Experiment [3] addresses T1, human TNF-α. Kind of experiment: KinExA 3000 kinetic exclusion assay. For orientation: In KinExA the mixture passes briefly over coated beads that capture the unbound partner.
Experiment [4] has as its target T1, human TNF-α. Kind of experiment: calculated from Kd = koff/kon (KinExA). On the procedure:
(§1) Next, binding kinetics of three of the Fab fragments described in Table 4 were determined in a kinetic exclusion assay. Affinity measurements were performed on a KinExA™3000 instrument (Sapidyne Instruments, Inc., Boise, Id.) using Fab fragments (A10K, A9K, and A10P) released from the periplasmic space whose concentration was determined by a quantitative ELISA. Briefly, antigen and antibody fragment were allowed to react in solution and the fraction of unbound reagent was determined by capture and measured on a bead support. Binding kinetics can be determined or calculated from the amount of unbound reagent. For instance, after interaction between TNF-α and a Fab fragment has occurred in solution, binding of the unreacted, free Fab fragment to TNF-α coated beads can be measured on the instrument by detection with a labeled secondary antibody to the Fab fragment (e.g., a goat anti-IgG (heavy and light)). […] For A10K and A10P, the Fab concentration was 10 pM with the human TNF-α concentration beginning at 160 pM and then serially diluted to 0.078 pM with the final tube containing no human TNF-α. A9K incubation was set in a similar manner, with the Fab at a constant concentration of 20 pM and human TNF-α serially diluted beginning at 500 pM with a final concentration of 0.24 pM. After the incubation, the amount of unbound Fab in the equilibrated samples was determined on the KinExA™3000 instrument according to the manufacturer's instructions. Kd values were determined by the instrument software.
To measure kₒₙ, individual Fab fragments at a concentration of 40 pM were mixed with 400 pM of hTNF-α. A series of measurements were taken over a time course. The resulting data was used to calculate the kₒₙ with the instrument software. koff was calculated by using the formula Kd=koff/kₒₙ.

Experiment [5] addresses T1, human TNF-α. Description: KinExA 3000 kinetic exclusion assay, 40 pM Fab mixed with 400 pM hTNF-α, time course. On the procedure:
(§2) Next, binding kinetics of three of the Fab fragments described in Table 4 were determined in a kinetic exclusion assay. Affinity measurements were performed on a KinExA™3000 instrument (Sapidyne Instruments, Inc., Boise, Id.) using Fab fragments (A10K, A9K, and A10P) released from the periplasmic space whose concentration was determined by a quantitative ELISA. Briefly, antigen and antibody fragment were allowed to react in solution and the fraction of unbound reagent was determined by capture and measured on a bead support. Binding kinetics can be determined or calculated from the amount of unbound reagent. For instance, after interaction between TNF-α and a Fab fragment has occurred in solution, binding of the unreacted, free Fab fragment to TNF-α coated beads can be measured on the instrument by detection with a labeled secondary antibody to the Fab fragment (e.g., a goat anti-IgG (heavy and light)). […] After the incubation, the amount of unbound Fab in the equilibrated samples was determined on the KinExA™3000 instrument according to the manufacturer's instructions. Kd values were determined by the instrument software.
(§3) To measure kₒₙ, individual Fab fragments at a concentration of 40 pM were mixed with 400 pM of hTNF-α. […] The resulting data was used to calculate the kₒₙ with the instrument software. koff was calculated by using the formula Kd=koff/kₒₙ.

In experiment [6] the target is T1, human TNF-α. Kind of experiment: KinExA 3000 kinetic exclusion assay, periplasmic Fab with hTNF-α in solution, 20 h at 20 C. On the procedure:
as §1

Experiment [7] deals with T1, human TNF-α. Kind of experiment: KinExA 3000 kinetic exclusion assay, 40 pM Fab mixed with 400 pM hTNF-α, time course; lower end of the printed range for A10K. The procedure: as §2, §3

T1 sequence (P01375 77-233 limits assumed): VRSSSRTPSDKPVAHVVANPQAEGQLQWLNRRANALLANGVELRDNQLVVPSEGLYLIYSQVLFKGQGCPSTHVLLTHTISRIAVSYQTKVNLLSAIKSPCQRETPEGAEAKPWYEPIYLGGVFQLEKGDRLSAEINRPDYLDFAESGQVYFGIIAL

B1: 2E7K Fab fragment (Fab, name in Kabat numbering, V domains shown)
VH: EVQLVESGGGLVQPGGSLRLSCAASGFKFSNHWMNWVRQAPGKGLEWVGEIRSKSMNSATHYARSVKGRFTISRDDSKNSLYLQMNSLKTEDTAVYYCARNYYGSTYDHWGQGTLVTVSS
VL: EIVLTQSPDFQSVTPKEKVTITCRASQFVGLSIHWYQQKPDQSPKLLIKYASESRSGVPSRFSGSGSGTDFTLTINSLEAEDAATYYCQQSHSWHFTFGQGTKVEIK
By EC50 (read off the curve) is commonly meant the concentration at which the effect is half-maximal. Turning to B1, the “EC50 (read off the curve)” value with human TNF-α [1] is about 0.02 µg/mL.

B2: A10K IgG (antibody, V domains shown)
VH: EVQLVESGGGLVQPGGSLRLSCAASGFKFSNHWMNWVRQAPGKGLEWVGEIRSKSMNSATHYAESVKGRFTISRDDSKNSLYLQMNSLKTEDTAVYYCARNYYGSTYDHWGQGTLVTVSS
VL: EIVLTQSPDFQSVTPKEKVTITCRASQFVGYSIHWYQQKPDQSPKLLIKYASESRSGVPSRFSGSGSGTDFTLTINSLEAEDAATYYCQQSHSWHFTFGQGTKVEIK
B2: the “EC50, L929 cell protection assay (FIG. 10)” value in the experiment with human TNF-α [2] is about 2.7 pM.

B3: AME 3-2 antibody (antibody, V domains shown)
VH: EVQLVESGGGLVQPGGSLRLSCAASGFTFRNHWMNWVRQAPGKGLEWVGEIRSKSINSATFYAESVKGRFTISRDDSKNSLYLQMNSLKTEDTAVYYCARNYYGSYYDHWGQGTLVTVSS
VL: DIQMTQSPSSLSASVGDRVTITCVTTQFVGYAIHWYQQKPGKAPKLLIYYASSSRSGVPSRFSGSGSGTDFTLTISSLQPEDFATYYCQQSHGWPFTFGQGTKVEIK
For orientation: Kd means the concentration at which binding is half-saturated. By koff is commonly meant the rate constant with which the complex falls apart. One may read the kon as the second-order rate constant of association. Higher therefore signals faster complex formation. With B3, in the experiment with human TNF-α [3], the equilibrium dissociation constant (Kd) turned out to be 0.01 pM, the koff was found to be 2.6e-08 s⁻¹ and the association rate constant (kon) came out at 2.6e+06 M⁻¹ s⁻¹.

B4: 2E7P Fab fragment (Fab, name in Kabat numbering, V domains shown)
VH: EVQLVESGGGLVQPGGSLRLSCAASGFPFSNHWMNWVRQAPGKGLEWVGEIRSKSMNSATHYARSVKGRFTISRDDSKNSLYLQMNSLKTEDTAVYYCARNYYGSTYDHWGQGTLVTVSS
VL: EIVLTQSPDFQSVTPKEKVTITCRASQFVGLSIHWYQQKPDQSPKLLIKYASESRSGVPSRFSGSGSGTDFTLTINSLEAEDAATYYCQQSHSWHFTFGQGTKVEIK
For B4, the “EC50 (read off the curve)” value with human TNF-α [1] is about 0.03 µg/mL.

B5: 2C6P Fab fragment (Fab, name in Kabat numbering, V domains shown)
VH: EVQLVESGGGLVQPGGSLRLSCAASGFPFSNHWMNWVRQAPGKGLEWVGEIRSKSINSATHYARSVKGRFTISRDDSKNSLYLQMNSLKTEDTAVYYCARNYYGSTYDHWGQGTLVTVSS
VL: EIVLTQSPDFQSVTPKEKVTITCRASQFVGLSIHWYQQKPDQSPKLLIKYASEYMSGVPSRFSGSGSGTDFTLTINSLEAEDAATYYCQQSHSWHFTFGQGTKVEIK
On to B5, for which the concentration giving a half-maximal response (EC50 (read off the curve)) with human TNF-α [1] is about 0.02 µg/mL.

B6: 2C6K Fab fragment (Fab, name in Kabat numbering, V domains shown)
VH: EVQLVESGGGLVQPGGSLRLSCAASGFKFSNHWMNWVRQAPGKGLEWVGEIRSKSINSATHYARSVKGRFTISRDDSKNSLYLQMNSLKTEDTAVYYCARNYYGSTYDHWGQGTLVTVSS
VL: EIVLTQSPDFQSVTPKEKVTITCRASQFVGLSIHWYQQKPDQSPKLLIKYASEYMSGVPSRFSGSGSGTDFTLTINSLEAEDAATYYCQQSHSWHFTFGQGTKVEIK
Take B6: the “EC50 (read off the curve)” value in the experiment with human TNF-α [1] was about 0.02 µg/mL.

B7: A9K Fab fragment (Fab, name in Kabat numbering, V domains shown)
VH: EVQLVESGGGLVQPGGSLRLSCAASGFKFSNHWMNWVRQAPGKGLEWVGEIRSKSMNSATHYARSVKGRFTISRDDSKNSLYLQMNSLKTEDTAVYYCARNYYGSTYDHWGQGTLVTVSS
VL: EIVLTQSPDFQSVTPKEKVTITCRASQFVGMSIHWYQQKPDQSPKLLIKYASESKSGVPSRFSGSGSGTDFTLTINSLEAEDAATYYCQQSHSWHFTFGQGTKVEIK
Take B7: in the experiment with human TNF-α [4], the koff was 6.2e-06 s⁻¹. In addition, the kon with human TNF-α [5] is 2.6e+06 M⁻¹ s⁻¹. In addition, the dissociation constant (Kd) in the experiment with human TNF-α [6] came to 2.4 pM. In addition, the “EC50 (read off the curve)” value with human TNF-α [1] is about 0.02 µg/mL.

B8: A10K Fab fragment (Fab, V domains shown)
VH: EVQLVESGGGLVQPGGSLRLSCAASGFKFSNHWMNWVRQAPGKGLEWVGEIRSKSMNSATHYAESVKGRFTISRDDSKNSLYLQMNSLKTEDTAVYYCARNYYGSTYDHWGQGTLVTVSS
VL: EIVLTQSPDFQSVTPKEKVTITCRASQFVGYSIHWYQQKPDQSPKLLIKYASESRSGVPSRFSGSGSGTDFTLTINSLEAEDAATYYCQQSHSWHFTFGQGTKVEIK
notes: Fab released from the E. coli periplasm; Mutations against hu1: light S31Y, M55R; heavy T28K, I53M
For B8, the koff in the experiment with human TNF-α [4] was 1.96e-05 to 3.76e-05 s⁻¹. In addition, the Kd with human TNF-α [6] lay within 3.5 to 7.2 pM. In addition, in the experiment with human TNF-α [2], the “EC50, L929 cell protection assay (FIG. 8)” value is about 25 pM and the “EC50, L929 cell protection assay (FIG. 9)” value was about 67 pM. In the experiment with human TNF-α [7], the on-rate constant (kon) was in the range of 3.9e+06 to 7.51e+06 M⁻¹ s⁻¹. Further, the half-maximal effective concentration (EC50 (read off the curve)) with human TNF-α [1] was about 0.02 µg/mL.

B9: A9P Fab fragment (Fab, name in Kabat numbering, V domains shown)
VH: EVQLVESGGGLVQPGGSLRLSCAASGFPFSNHWMNWVRQAPGKGLEWVGEIRSKSMNSATHYARSVKGRFTISRDDSKNSLYLQMNSLKTEDTAVYYCARNYYGSTYDHWGQGTLVTVSS
VL: EIVLTQSPDFQSVTPKEKVTITCRASQFVGMSIHWYQQKPDQSPKLLIKYASESKSGVPSRFSGSGSGTDFTLTINSLEAEDAATYYCQQSHSWHFTFGQGTKVEIK
Take B9: the concentration for a half-maximal effect (EC50 (read off the curve)) with human TNF-α [1] was about 0.02 µg/mL.

B10: A10P Fab fragment (Fab, name in Kabat numbering, V domains shown)
VH: EVQLVESGGGLVQPGGSLRLSCAASGFPFSNHWMNWVRQAPGKGLEWVGEIRSKSMNSATHYAESVKGRFTISRDDSKNSLYLQMNSLKTEDTAVYYCARNYYGSTYDHWGQGTLVTVSS
VL: EIVLTQSPDFQSVTPKEKVTITCRASQFVGYSIHWYQQKPDQSPKLLIKYASESRSGVPSRFSGSGSGTDFTLTINSLEAEDAATYYCQQSHSWHFTFGQGTKVEIK
As to B10, the koff with human TNF-α [4] is 8.2e-06 s⁻¹. For the same molecule, in the experiment with human TNF-α [5], the kon came to 4.1e+06 M⁻¹ s⁻¹. This molecule also yielded a Kd with human TNF-α [6] of 2 pM. Also, the “EC50 (read off the curve)” value in the experiment with human TNF-α [1] is about 0.02 µg/mL.

B11: hu1 Fab fragment (Fab, V domains shown)
VH: EVQLVESGGGLVQPGGSLRLSCAASGFTFSNHWMNWVRQAPGKGLEWVGEIRSKSINSATHYAESVKGRFTISRDDSKNSLYLQMNSLKTEDTAVYYCARNYYGSTYDHWGQGTLVTVSS
VL: EIVLTQSPDFQSVTPKEKVTITCRASQFVGSSIHWYQQKPDQSPKLLIKYASESMSGVPSRFSGSGSGTDFTLTINSLEAEDAATYYCQQSHSWHFTFGQGTKVEIK
notes: Parent Fab with fully human frameworks
Regarding B11, the binding result with human TNF-α [1] is given as “binds”.
